Laboratory results taken from PMC3713010, “Sox2 Transcriptionally Regulates Pqbp1, an Intellectual Disability-Microcephaly Causative Gene, in Neural Stem Progenitor Cells”.

Key:
[1] = target: Sox2;Brn2 (Mus musculus (B6);Mus musculus (B6), UniProt P48432;P31360 1-319;1-445, |); assay: EMSA; supershift with anti-Brn2; EMSA: 20 ng GST-fusion protein, 20 mM HEPES pH 7.8, 45 mM KCl, 10 mM NaCl, 1 mM EDTA, 1 mM DTT, 10% glycerol, 0.2 ug/uL BSA, 0.1% NP-40, 50 ng poly-dIdC; RT 30; conditions: protein: recombinant;recombinant; tags: GST (N-terminal, pGEX-6P-1);GST (N-terminal, pGEX-6P-1); copies: 1;1; label: 32P
Sox2;Brn2, sequence (P48432 whole entry, chain 1 of 2, the tested form may be a part): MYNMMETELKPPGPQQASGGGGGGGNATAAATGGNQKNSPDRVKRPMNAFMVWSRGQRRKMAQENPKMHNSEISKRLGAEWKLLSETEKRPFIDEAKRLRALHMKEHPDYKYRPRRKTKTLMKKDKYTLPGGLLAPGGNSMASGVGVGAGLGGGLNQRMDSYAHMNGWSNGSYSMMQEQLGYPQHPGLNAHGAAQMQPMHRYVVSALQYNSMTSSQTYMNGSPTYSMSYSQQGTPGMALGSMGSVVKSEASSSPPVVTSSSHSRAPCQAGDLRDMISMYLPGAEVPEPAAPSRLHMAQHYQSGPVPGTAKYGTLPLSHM
Sox2;Brn2, sequence (P31360 whole entry, chain 2 of 2, the tested form may be a part): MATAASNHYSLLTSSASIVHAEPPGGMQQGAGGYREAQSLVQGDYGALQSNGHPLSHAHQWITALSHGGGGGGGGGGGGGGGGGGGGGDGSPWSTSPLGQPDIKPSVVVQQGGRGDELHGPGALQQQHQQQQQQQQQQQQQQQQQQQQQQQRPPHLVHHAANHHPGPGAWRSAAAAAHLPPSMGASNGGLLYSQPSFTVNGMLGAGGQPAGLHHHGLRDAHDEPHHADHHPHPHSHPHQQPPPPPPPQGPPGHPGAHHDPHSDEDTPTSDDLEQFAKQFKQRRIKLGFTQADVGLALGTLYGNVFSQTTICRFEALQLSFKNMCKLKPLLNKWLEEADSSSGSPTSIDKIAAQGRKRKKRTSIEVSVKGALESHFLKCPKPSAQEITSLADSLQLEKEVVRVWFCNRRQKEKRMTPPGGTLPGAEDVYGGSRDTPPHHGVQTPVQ

[2] = target: Sox2;Pax6 (Mus musculus (B6);Mus musculus (B6), UniProt P48432;P63015 1-319;1-422, |); assay: EMSA; supershift with anti-Pax6; EMSA: 20 ng GST-fusion protein, 20 mM HEPES pH 7.8, 45 mM KCl, 10 mM NaCl, 1 mM EDTA, 1 mM DTT, 10% glycerol, 0.2 ug/uL BSA, 0.1% NP-40, 50 ng poly-dIdC; RT 30; conditions: protein: recombinant;recombinant; tags: GST (N-terminal, pGEX-6P-1);GST (N-terminal, pGEX-6P-1); copies: 1;1; label: 32P
Sox2;Pax6, sequence (P48432 whole entry, chain 1 of 2, the tested form may be a part): as the sequence (P48432 whole entry, chain 1 of 2, the tested form may be a part) above
Sox2;Pax6, sequence (P63015 whole entry, chain 2 of 2, the tested form may be a part): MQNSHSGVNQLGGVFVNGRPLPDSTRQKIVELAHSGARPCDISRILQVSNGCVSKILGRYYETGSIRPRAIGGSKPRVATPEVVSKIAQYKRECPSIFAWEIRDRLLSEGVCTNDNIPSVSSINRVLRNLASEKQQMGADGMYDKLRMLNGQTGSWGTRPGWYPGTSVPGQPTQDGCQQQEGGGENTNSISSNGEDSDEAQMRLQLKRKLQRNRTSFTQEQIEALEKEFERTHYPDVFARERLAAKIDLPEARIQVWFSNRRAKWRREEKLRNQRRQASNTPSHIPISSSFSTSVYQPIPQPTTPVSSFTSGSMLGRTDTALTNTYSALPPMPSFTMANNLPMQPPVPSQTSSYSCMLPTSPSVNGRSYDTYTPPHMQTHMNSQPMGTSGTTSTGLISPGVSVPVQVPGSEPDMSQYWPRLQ

Binder | binding result [1] | binding result [2]
Sox2-Brn2 consensus probe (dsDNA) DNA 1: GGGTAGTGTGGACAAAAGGCAATAATTAGCATGAGAATC DNA 2: GATTCTCATGCTAATTATTGCCTTTTGTCCACACTACCC | binds | 
Sox2-Pax6 consensus probe (dsDNA) DNA 1: GGGAAATATTCATTGTTGTTGCTCACCTACCATGGA DNA 2: TCCATGGTAGGTGAGCAACAACAATGAATATTTCCC |  | binds
